# According to the supplement of paper PMC9170038:
# Test system: MS2 coat protein
# Assay: apparent KD of MS2 coat protein; designed switch direction (-1 OFF switch, 1 ON switch): -1; higher = weaker reporter binding
# Outline: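 Each step of the titration lasted 0.8–1.5 h at the lowest concentration and 10–20 min at the highest. The protein, SNAP-549-labelled MS2 coat protein, went from 0.7 or 1.5 nM doubling to 3 µM over RNA switches transcribed on Illumina chips by stalled E. coli RNA polymerase. Normalised cluster fluorescence was curve-fitted, and the per-design median over clusters is given as apparent KD.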
# [1] = input ligand: microRNA oligo, concentration not stated
# [2] = Eterna round: R95, input ligand: FMN 200 uM
# [3] = Eterna round: R95, input ligand: microRNA oligo, concentration not stated
# [4] = Eterna round: R95, input ligand: none
Sequence,apparent KD of MS2 coat protein (input ligand: FMN 200 uM) [nM],apparent KD of MS2 coat protein [1] [nM],apparent KD of MS2 coat protein (input ligand: none) [nM],apparent KD of MS2 coat protein [2] [nM],apparent KD of MS2 coat protein [3] [nM],apparent KD of MS2 coat protein [4] [nM]
"AAAAAAAAGAUAGGAUAUUAGAAAAAAAUGGUGAUAGAGACAUGAGGAUCACCCAUGUAAAAAAAUAAGAAGGGUCAAAAAAAA [AK ExNG2-V2-5] (Eterna round: R96, puzzle: Exclusion NG 2)",322,298,362,,,
"AAAAAACAUGAGGAUCACCCAUGUGAGGAUAUGAUGCGAAUAAAGAAAGAAGAAAGCAUCAGAAGGCACAUAUG [Mod of Disincluded 3 (little more stable fmn state)] (Eterna round: R96, puzzle: Exclusion 1)",,66.6,,,,
"AAAAAGGCAGGAUAUACGAGUCAAAGAAAAGACAAAAAGGGACAUGAGGAUCACCCAUGUAGAAGGGCCAAAAA [Fiskers exclusion D2 62% 4] (Eterna round: R96, puzzle: Exclusion 2)",,31.9,,,,
AAAAAGGUAGGAUAUACGAAAAAAAAGGGUAGAAAAAAAACACAUGAGGAUCACCCAUGUAGAAGGACCAAAAG [salish99_ex2_r3_045] (puzzle: Exclusion 2),,,,58.7,32,28.4
"AAAACGGUUCUCGUGAGGUACAUGAGGAUCACCCAUGUGAGUCAGGAUAUCCCGUCCAAGUGCGAGGAGAAGGGACGCACUUGG [Esesence] (Eterna round: R96, puzzle: Exclusion NG 3)",190,103,110,,,
"AAAAGAUAAGGAUAUUGAAGGUUCGACAUGAGGAUCACCCAUGUUAUGUUGGAAAAGGGACAAGAAGGUAUGAAAU [salish99_ex5_r4_202] (Eterna round: R97, puzzle: Exclusion 5)",28.6,,29.1,,,
AAAAGUCCGGAGGAUAUCCACAAGCUCGGGAAAGGAGAAGGCCGGACAUGAGGAUCACCCAUGUGUCUUCUUGC [Rebila] (puzzle: Exclusion 6),,,,358,63,94.5
"AAAAGUUAAGGAUAUACUUGAGGAUCACCCAAGUAGGUGGCUUCAGCCGGGAAACGGCGUAGAAGGUAGCAGAA [Atorin] (Eterna round: R97, puzzle: Exclusion 3)",65.2,,60.5,,,
"AAAAUACAAGCAAGAUCCUACAUGAGGAUCACCCAUGUGCUCGUCUUAUAAAGUACUAUCACGAAAGUGAUAGUACA [Mat - Sensor v3 - turn-off var 1 - Eli Mod - D59] (puzzle: Sensor v3, turn-off variant 1)",,,,256,43.1,415
AAAAUGGUCUAGGAUAUGACAAAUCUGAUCACGUCAGAAGGAGACACAUGAGGAUCACCCAUGUGGGUGCGAAA [Qureenan] (puzzle: Exclusion 6),,,,130,44.4,39.5
"AAACACGGAGGAUAUACAGGUUCAGGAAACCGAACCGGCUGACAUGAGGAUCACCCAUGUAGAAGGCCGAAAUA [EX2 A.23] (Eterna round: R97, puzzle: Exclusion 2)",19.5,,20.9,,,
"AAACAGGGAGGAUAUACAUGAGGAUCACCCAUGUUCGAGCGUCCUUGAGCUACCUCAGGUAGAAGGCCCAAAAG [Qubeon] (Eterna round: R97, puzzle: Exclusion 3)",151,,32.9,,,
"AAACCAAUAGUCAGGAUAUCUUAGUCGCGGAUGUGGGAGAAGGGACAUGAGGAUCACCCAUGUGGGAGUAUGUG [Eternabot (L1) Solution 19] (Eterna round: R97, puzzle: Brourd's mod of Exclusion 4)",116,,122,,,
"AAACCCGCGCGAGGAUAUCACAUGAGGAUCACCCAUGUGGCACUCCGUCACCGGGCAGUCCCGAGUGAGAAGGUGCAGGCGGAA [Entereis] (Eterna round: R96, puzzle: Exclusion NG 2)",27.5,32.4,23.4,,,
"AAACCUAAUGUUAGGAUAUGCUUCGGGCUUCCGCUGCAGAAGGAACAUGAGGAUCACCCAUGUCAAAUAAAAUC [JL-BMX4-4.39 ViennaUCT mod] (Eterna round: R97, puzzle: Brourd's mod of Exclusion 4)",81.8,,17.6,,,
"AAACGGCAUAGAGGAUAUGCUUACCUGGGUCGUCUUCAAACAUGAGGAUCACCCAUGUAGUCGACGCAGAAGGUUAUCAAAGCC [ExNG2 2nd] (Eterna round: R96, puzzle: Exclusion NG 2)",16,12.2,17.9,,,
AAACGUGCGAAGGAUAUCCAUCCACCCUGGAAAGGAGAAGGUCGCACAUGAGGAUCACCCAUGUGUGCCUAAAA [Zalave] (puzzle: Exclusion 6),,,,26.6,11.4,11.8
AAAGAACAUGAGGAUCACCCAUGUGAGGAUAUCGAGAAAAGAAAGAAGAAGAAGAAAACGAGAAGGCACAAGAA [The design that might work] (puzzle: Exclusion 1),,,,43.7,65,56.9
AAAGAACAUGAGGAUCACCCAUGUGAGGAUAUGUAAGGAUUGUGGAGAAGAAGAGAGAACAGAAGGCACGGAGG [JR_Exclu1_Sub068] (puzzle: Exclusion 1),,,,36.8,32.1,44.9
"AAAGAAGAGAGAAAAUAACACAUGAGGAUCACCCAUGUGAGAAGUUGAGGGUGAUACAGGCUUUAUGCUCGUCUUAU (puzzle: Sensor v3, turn-off variant 1)",,,,173,204,
AAAGACAGAGGAUAUGCACGCCGACCCGGGCGGGAAGUCGGACAUGAGGAUCACCCAUGUAGAAGGCUGAGAAA [Exclss2-VII] (puzzle: Exclusion 2),,,,,10.5,
AAAGAGCGAGGAUAUGCGUGCCGGUGCGGCCAGCCGAUGUGACAUGAGGAUCACCCAUGUAGAAGGCGCAGAAA [Excls2-VIII] (puzzle: Exclusion 2),,,,,12.8,
"AAAGGCUCAGGAUAUGCCCAGGAAGACAUGAGGAUCACCCAUGUACUACGGGUGUCAUACGCAGAAGGGAGAUAGA [EX5 C.28] (Eterna round: R97, puzzle: Exclusion 5)",25.1,,28.7,,,
"AAAUAAAAACAAGCAAAACACAUGAGGAUCACCCAUGUAAAGGGUGAAGUUCGCACCCAAAAAUAAAAUAAAUAAAA [another turnoff var 1st] (Eterna round: R96, puzzle: Sensor v2, turn-off variant)",26.7,29.8,24.9,,,
"AAAUAAAACAAGCAAUAAAACAUGAGGAUCACCCAUGUAAAGGGUGAAGUUCGCACCCAAAAAUAAAAUAAAUAAAA [Denovo Take 6, 5] (Eterna round: R96, puzzle: Sensor v2, turn-off variant)",22.1,39.6,25,,,
